# Data taken from the supplement of paper PMC12042874.
# ± gives the uncertainty stated by the source.
# Assay: amyloid nucleation score (Sup35N fusion, yeast selection) (log enrichment); library NNK2; higher = more nucleation; inactive = no reads after selection
# Outline: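 Growth for 7 days at 30°C on medium lacking adenine and uracil followed a 24-hour induction with 100 μM copper sulfate of psi-negative yeast expressing peptides of 20 random codons fused to Sup35N. Input and output plasmid inserts were sequenced with Illumina, and sequences with under 100 input reads were excluded. Nucleation score is the DiMSum log enrichment of output over input reads, centred on the mode score of non-aggregating sequences.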
row,Substance,amyloid nucleation score
1,CYSMSRVVSNGEKHYD,0.675 ± 0.4
2,CYSYWPRSPFIWY,-0.978 ± 1.1
3,DACYGITLDCCETLARSMSC,-0.382 ± 0.76
4,DADIRQ,0.764 ± 0.47
5,DANTRGHSCRNCM,0.195 ± 0.76
6,DAWYMDFLSCACWIHWR,0.871 ± 0.45
7,DCRDLFLKKVWGYVGRLCEV,inactive
8,DCRFQIHVCDAYDK,inactive
9,DCSSVISKSSLIAVLCFHTN,5.14 ± 0.058
10,DDASKKLYS,0.967 ± 0.15
11,DDCVPQWEYK,0.695 ± 0.42
12,DDFNERSSLHVVYDRF,-0.901 ± 1
13,DDGMCRRYCLGRKYTMGIEL,1.78 ± 0.14
14,DDIIISPVPDHE,inactive
15,DDSTFKSRFVLGIPAICLGS,-1.37 ± 0.4
16,DDVYNSGYKELIRSQ,0.348 ± 0.25
17,DEECTEPTWIGDEFDPLDIE,inactive
18,DEIQGLNRRYLPRG,0.936 ± 0.52
19,DESSSRDETCGVFTHLVCVV,-0.249 ± 0.28
20,DFAFAFVVGTVLAISICVKH,-0.459 ± 0.56
21,DFFFCFRYTDLEQE,-0.195 ± 0.61
22,DFMRELYFMGSRPFEMLYMY,0.102 ± 0.77
23,DFPQCKNTETLL,0.279 ± 0.4
24,DFSAFNEGHQINHLIQGSV,-1.35 ± 0.62

row,Substance,amyloid nucleation score
1,DFTRYYFYIPHRRVHTVH,-0.763 ± 0.4
2,DFYMYSVVDLS,-0.767 ± 0.31
3,DGFHLNALHLESRQLGVGFS,3.87 ± 0.069
4,DGFHQCAS,3.74 ± 0.089
5,DGGREPIVFYSQNYVCNKFV,6.775 ± 0.048
6,DGINLDICCCNTDKLNIDRI,inactive
7,DGLFGVTTWNSLFLWILKR,-1.1 ± 0.62
8,DGTGYGTSKLTWWRDFLKRC,-0.192 ± 0.63
9,DGVSVPSCRLKRKAVIAGWL,0.662 ± 0.4
10,DGYLRYYSNLDG,0.147 ± 1.1
11,DHHDTTHYYIWVDKYKYLV,-0.216 ± 0.64
12,DHLGWHEVTVSLELSFFYRV,4.83 ± 0.11
13,DHLNGASRRMWLLTYFTVFE,inactive
14,DHRILILLTPQFSYDIWTVH,inactive
15,DIFITTSSFTLRCAYIIKGI,-1.44 ± 0.78
16,DIFLTLEFYISVETKGAKKA,3.92 ± 0.05
17,DIGRLTLHGRVSADG,0.748 ± 0.25
18,DISYGSSDINHCLVTYMWQC,0.192 ± 1
19,DIVNLSEDGLSSNELFIARM,-0.52 ± 1.1
20,DIWIMI,-0.225 ± 0.45
21,DKANRDQWHQAKSSVCFGGV,0.089 ± 0.56
22,DKANTRGGLRCYKMHQFAFV,1.15 ± 0.21
23,DKDCVGIVLLFGQCVSITLA,inactive
24,DKFISLFKRGAHKDVQ,-0.42 ± 0.76

row,Substance,amyloid nucleation score
1,DKGEEPELIV,0.742 ± 0.16
2,DKIVI,-0.978 ± 0.54
3,DKLVRWHLGMLIGGRGSCLF,0.294 ± 0.8
4,DKSNLARFTSSKWS,0.426 ± 0.35
5,DKYFLLAYGVWGSLRFLTLC,-0.288 ± 1
6,DLFVSGTVETFPANWGGMSR,0.665 ± 0.42
7,DLGGQMNYLVLMGNDMWNV,-1.01 ± 0.78
8,DLGIYSLTNFKMLPST,0.544 ± 0.52
9,DLLQREIDRSIVRLWIMEKG,0.252 ± 0.49
10,DLRIREMDLGNWSWASR,0.653 ± 0.23
11,DLSDIDRCGRLVNRESILLR,1.45 ± 0.5
12,DLSRTRGTEKASRSVWLRSM,3.97 ± 0.048
13,DLVVMSLRR,6.18 ± 0.057
14,DLWRY,0.102 ± 0.77
15,DLYRYNMLKDVV,4.403 ± 0.037
16,DLYSSV,0.75 ± 0.41
17,DNDRHNAVALRSSVIVLLGK,inactive
18,DNLSGMIPTKTVDSSRP,0.611 ± 0.81
19,DNMGMRSGSSDLHREVWSHC,0.172 ± 0.35
20,DNRGKLDWAPSSVVSVWLIC,3.74 ± 0.089
21,DPAELQ,-0.256 ± 0.79
22,DPWRGGPVSSH,1.18 ± 0.23
